For series [1], the system named is GST-ZCCHC3 MF R168/247S (human). The series can be described thus: pull-down.
In series [2] the test system is GST-ZCCHC3 MF R168S (human). The series can be described thus: pull-down.
Series [3] relates to GST-ZCCHC3 MF R247S (human). Description: pull-down.
Series [4] concerns the target T1, GST-ZCCHC3 MF (middle-fold domain) (human, UniProt Q9NUD5 159-334).
T1 sequence: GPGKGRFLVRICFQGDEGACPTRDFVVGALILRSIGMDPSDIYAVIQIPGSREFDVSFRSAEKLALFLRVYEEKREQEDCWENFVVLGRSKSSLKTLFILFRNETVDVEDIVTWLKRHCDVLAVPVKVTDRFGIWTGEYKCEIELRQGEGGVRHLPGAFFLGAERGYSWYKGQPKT
The series can be described thus: pull-down. Particulars: protein: recombinant; tags: GST; hairpin.

Series [5] deals with T1, GST-ZCCHC3 MF (middle-fold domain). The series can be described thus: pull-down; Pull-down: 20 mM Tris-HCl pH 7.4, 30 mM NaCl, 0.1 mM MgCl2, 1 mM DTT, RNase inhibitor, 10 min; EMSA: 40 mM Tris pH 8.0, 2 mM KCl, 1 mM MgCl2, 1% NP-40, 1 mM DTT, 25 C, 10 min. The note with it: protein: recombinant; tags: GST; hairpin.

For the molecule HIV-1 5' LTR (R-U5) RNA, the binding signal in series [1] is 15 % of WT; in series [2], 50 % of WT; in series [3], 50 % of WT.

Regarding UCUCUGGUUAGACCAGAUCUGAGCCUGGGAGCUCUCUGGCUAACUAGGGA (structured_RNA) [HIV-1 LTR SL1], in series [4], the binding result is given as “binds”.

On to CUAGAGAUCCCUCAGACCCUUUUAGUCAGUGUGGAAAAUCUCUAG (structured_RNA) [HIV-1 LTR SL3], for which the binding result in series [5] was “binds”. Consider CCACUGCUUAAGCCUCAAUAAAGCUUGCCUUGAGUGCUCAAAGUAGUGU (structured_RNA) [HIV-1 LTR SL2], for which the binding result in series [4] was “binds”.
